Measurements as given in article doi:10.1101/2023.08.15.553295 (bioRxiv, 2023).
Ends that are not written are not given here.

B1: FITC-labeled MAGEA3 C-terminal degron peptide (peptide)
peptide: LHEWVLREGEE
modifications: also: FITC label, position not given here
B2: unlabeled MAGEA3 C-terminal degron peptide (peptide)
peptide: LHEWVLREGEE
B3: unlabeled CCT5 C-terminal degron peptide (peptide)
peptide: IRKPGESEE
B4: NanoLuc-MAGEA3 full length (natural protein)
chain: MPLEQRSQHCKPEEGLEARGEALGLVGAQAPATEEQEAASSSSTLVEVTLGEVPAAESPDPPQSPQGASSLPTTMNYPLWSQSYEDSSNQEEEGPSTFPDLESEFQAALSRKVAELVHFLLLKYRAREPVTKAEMLGSVVGNWQYFFPVIFSKASSSLQLVFGIELMEVDPIGHLYIFATCLGLSYDGLLGDNQIMPKAGLLIIVLAIIAREGDCAPEEKIWEELSVLEVFEGREDSILGDPKKLLTQHFVQENYLEYRQVPGSDPACYEFLWGPRALVETSYVKVLHHMVKISGGPHISYPPLHEWVLREGEE
B5: FITC-labeled CCT5 C-terminal degron peptide (peptide)
peptide: IRKPGESEE
modifications: also: FITC label, position not given here

Tests used:
DCAF12 (Δ1-78) [1] = target: T1, DCAF12 (Δ1-78) (human, UniProt Q5T6F0 79-453); test: fluorescence polarisation
DCAF12 (Δ1-78) [2] = target: T1, DCAF12 (Δ1-78); test: fluorescence polarisation; remark: listed apart in the source
[3] = target: biotinylated DCAF12 (Δ1-78) (human, UniProt Q5T6F0 79-453, biotin); test: SPR
HaloTag-DCAF12 wild type = HaloTag-DCAF12 wild type (human, UniProt Q5T6F0 1-453); test: FRET or BRET
Chain of HaloTag-DCAF12 wild type (Q5T6F0 whole entry): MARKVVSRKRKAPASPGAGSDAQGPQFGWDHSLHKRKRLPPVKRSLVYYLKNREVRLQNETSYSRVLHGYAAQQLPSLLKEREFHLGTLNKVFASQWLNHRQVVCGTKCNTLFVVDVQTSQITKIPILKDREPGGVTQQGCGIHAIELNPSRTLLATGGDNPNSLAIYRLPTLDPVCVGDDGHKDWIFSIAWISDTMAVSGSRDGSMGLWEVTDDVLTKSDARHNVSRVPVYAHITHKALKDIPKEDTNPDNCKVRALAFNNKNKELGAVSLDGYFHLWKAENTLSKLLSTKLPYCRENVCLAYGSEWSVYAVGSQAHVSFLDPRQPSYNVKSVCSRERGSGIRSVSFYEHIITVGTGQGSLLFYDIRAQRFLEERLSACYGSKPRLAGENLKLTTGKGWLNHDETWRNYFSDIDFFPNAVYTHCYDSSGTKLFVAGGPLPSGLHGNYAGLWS

T1 sequence (Q5T6F0 79-453, stated change not applied): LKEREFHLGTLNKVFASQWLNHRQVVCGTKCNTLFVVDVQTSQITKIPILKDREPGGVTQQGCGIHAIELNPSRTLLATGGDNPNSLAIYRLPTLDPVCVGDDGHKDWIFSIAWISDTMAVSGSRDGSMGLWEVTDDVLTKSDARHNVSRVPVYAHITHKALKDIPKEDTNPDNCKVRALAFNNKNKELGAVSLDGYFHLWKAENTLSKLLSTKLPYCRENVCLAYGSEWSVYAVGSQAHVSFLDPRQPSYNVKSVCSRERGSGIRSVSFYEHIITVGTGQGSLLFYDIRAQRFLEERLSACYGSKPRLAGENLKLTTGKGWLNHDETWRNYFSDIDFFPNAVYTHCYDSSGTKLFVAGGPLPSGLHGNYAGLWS
Chain of biotinylated DCAF12 (Δ1-78) (Q5T6F0 79-453, stated change not applied): as above

Binder | Kd (DCAF12 (Δ1-78) [1]) [nM] | binding result (DCAF12 (Δ1-78) [2]) | binding result [3] | BRET signal, fold over the negative control (HaloTag-DCAF12 wild type) [fold]
B1 | < 370 | – | – | –
B2 | – | binds | binds | –
B3 | – | binds | binds | –
B4 | – | – | – | 22
B5 | < 370 | – | – | –
